# From paper PMC8486872 (2021)
# Residue numbers refer to the chain shown, from its start.
# B1: LD3_v3 (designed binder)
# chain: QRWELALGRFLEYLSWVSTLSEQVQEELLSSQVTQELRALMDETMKELKAYKSELEEQLTPVAEETRARLSKELQAAQARLGADMEDVRGRLVQYRGEVQAMLGQSTEELRVRLASHLIALALRLIGAAFDLQKRLAVY
# B2: LD3_v2 (designed binder)
# chain: B1 chain with R124A, A128D
# B3: LD3_v1 (designed binder)
# chain: B1 chain with E12A, A128D
# Biological target: Bcl2 (UniProt P10415 1-239)
# Experiment: SPR
# Chain of Bcl2 (P10415 whole entry): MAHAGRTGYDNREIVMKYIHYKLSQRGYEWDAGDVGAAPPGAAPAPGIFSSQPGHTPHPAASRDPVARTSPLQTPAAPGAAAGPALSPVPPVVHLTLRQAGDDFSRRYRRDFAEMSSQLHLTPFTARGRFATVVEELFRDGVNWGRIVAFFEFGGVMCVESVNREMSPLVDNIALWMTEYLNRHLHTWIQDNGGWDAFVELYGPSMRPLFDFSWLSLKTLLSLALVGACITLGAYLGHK
row,Binder,Kd [nM]
1,B1,147
2,B2,64.1
3,B3,16.8
